The text below walks through data of US20250043026A1 (SHANGHAI BAO PHARMACEUTICALS, published 2025).

Numbering of substitutions follows the chain as printed.

In test [1] the target is T1, FcγRIIa-131R (Acro Biosystems) (UniProt P12318 36-218, limits assumed).
T1 construct: The 131H/R allotypes are those of the human receptor
T1 sequence (looked up): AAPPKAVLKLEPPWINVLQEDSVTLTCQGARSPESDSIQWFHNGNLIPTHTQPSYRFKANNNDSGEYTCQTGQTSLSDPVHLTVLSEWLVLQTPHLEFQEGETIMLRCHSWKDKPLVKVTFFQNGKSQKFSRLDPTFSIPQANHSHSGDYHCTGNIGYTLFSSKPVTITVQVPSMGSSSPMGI
In words: BLI (Fortebio), FcγR loaded on HIS1K probe, pH 7.0. As for the experimental part:
(§1) The variant proteins were tested for affinity to FcγRI, FcγRIIa-131H, FcγRIIa-131R, FcγRIIb, FcγRIIIa-158F, FcγRIIIa-158V at pH 7.0. The affinity of the antibody fragment for the receptor was determined using Fortebio. Different FcγR (Acro Biosystems) was loaded at 0.5 nm with an HIS1K probe, bound to the variant protein at various concentrations for 60 seconds and dissociated for 60 seconds.

Test [2] deals with T2, FcγRIIIa-158F (Acro Biosystems) (UniProt P08637 17-208).
T2 construct: The 158V/F allotypes are those of the human receptor
T2 sequence (P08637 17-208 limits assumed): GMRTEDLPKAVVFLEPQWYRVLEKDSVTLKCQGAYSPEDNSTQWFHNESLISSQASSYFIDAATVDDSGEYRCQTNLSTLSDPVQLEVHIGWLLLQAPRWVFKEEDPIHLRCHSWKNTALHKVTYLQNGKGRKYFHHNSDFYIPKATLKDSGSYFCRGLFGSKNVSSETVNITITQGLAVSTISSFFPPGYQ
In words: BLI (Fortebio), FcγR loaded on HIS1K probe, pH 7.0. As for the experimental part: as §1

Test [3] deals with T3, FcγRIIb (Acro Biosystems) (UniProt P31994 46-217, limits assumed).
T3 sequence (looked up): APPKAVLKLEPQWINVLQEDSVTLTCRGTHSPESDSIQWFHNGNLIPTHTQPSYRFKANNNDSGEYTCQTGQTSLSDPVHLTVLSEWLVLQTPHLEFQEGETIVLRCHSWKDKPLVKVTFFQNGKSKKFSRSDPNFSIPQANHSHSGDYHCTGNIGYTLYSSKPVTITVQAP
In words: BLI (Fortebio), FcγR loaded on HIS1K probe, pH 7.0. As for the experimental part:
as §1

The target in test [4] is T4, FcγRIIa-131H (Acro Biosystems) (UniProt P12318 36-218, limits assumed).
T4 construct: The 131H/R allotypes are those of the human receptor
T4 sequence (looked up): T1 sequence (looked up) with R132H
Briefly: BLI (Fortebio), FcγR loaded on HIS1K probe, pH 7.0. As for the experimental part: as §1

Test [5] has as its target T5, FcγRIIIa-158V (Acro Biosystems) (UniProt P08637 17-208).
T5 construct: The 158V/F allotypes are those of the human receptor
In words: BLI (Fortebio), FcγR loaded on HIS1K probe, pH 7.0. As for the experimental part:
as §1

The target of test [6] is T6, FcγRI (Acro Biosystems) (UniProt P12314 16-288, limits assumed).
T6 construct: also called CD64
T6 sequence (P12314 16-288 limits assumed): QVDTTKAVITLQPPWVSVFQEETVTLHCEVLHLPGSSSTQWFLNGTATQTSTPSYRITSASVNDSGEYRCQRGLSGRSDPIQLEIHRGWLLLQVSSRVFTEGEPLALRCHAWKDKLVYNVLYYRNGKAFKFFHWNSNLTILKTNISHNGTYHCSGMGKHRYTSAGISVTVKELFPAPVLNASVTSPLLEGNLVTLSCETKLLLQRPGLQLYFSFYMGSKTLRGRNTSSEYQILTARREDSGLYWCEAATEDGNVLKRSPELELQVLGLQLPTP
Briefly: BLI (Fortebio), FcγR loaded on HIS1K probe, pH 7.0. As for the experimental part: as §1

For a further test, the target named is FcRn (Acro Biosystems) (human, UniProt P55899 24-297; P61769 21-119). Briefly: BLI (Fortebio), FcRn loaded on HIS1K probe, pH 7.0. As for the experimental part: The variant proteins were tested for affinity to FcRn at pH 7.0. The affinity of the antibody fragment for the receptor was determined using Fortebio. FcRn (Acro Biosystems) was loaded at 0.8 nm with an HIS1K probe, bound to the variant protein at various concentrations for 60 seconds and dissociated for 300 seconds.
Sequence of FcRn (Acro Biosystems) (P55899 24-297 limits assumed, chain 1 of 2): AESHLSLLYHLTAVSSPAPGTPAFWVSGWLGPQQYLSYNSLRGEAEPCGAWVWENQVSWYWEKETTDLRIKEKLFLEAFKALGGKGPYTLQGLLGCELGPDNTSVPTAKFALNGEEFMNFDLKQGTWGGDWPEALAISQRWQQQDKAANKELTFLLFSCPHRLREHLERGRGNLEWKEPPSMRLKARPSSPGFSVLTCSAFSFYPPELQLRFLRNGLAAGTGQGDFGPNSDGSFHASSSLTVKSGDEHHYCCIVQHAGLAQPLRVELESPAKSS
Sequence of FcRn (Acro Biosystems) (P61769 21-119 limits assumed, chain 2 of 2): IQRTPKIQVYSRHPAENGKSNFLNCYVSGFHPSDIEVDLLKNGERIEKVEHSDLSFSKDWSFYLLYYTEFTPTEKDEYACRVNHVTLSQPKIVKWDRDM

Test [7] concerns the target T6, FcγRI (Acro Biosystems). In words: BLI (Fortebio), ratio of KD against m1. As for the experimental part: as §1
The target in test [8] is T1, FcγRIIa-131R (Acro Biosystems). Briefly: BLI (Fortebio), ratio of KD against m1. As for the experimental part: as §1
Test [9] has as its target T2, FcγRIIIa-158F (Acro Biosystems). Briefly: BLI (Fortebio), ratio of KD against m1. As for the experimental part: as §1
For test [10], the target named is T3, FcγRIIb (Acro Biosystems). Briefly: BLI (Fortebio), ratio of KD against m1. As for the experimental part:
as §1

In test [11] the target is T4, FcγRIIa-131H (Acro Biosystems). Briefly: BLI (Fortebio), ratio of KD against m1. As for the experimental part:
as §1

In test [12] the target is T5, FcγRIIIa-158V (Acro Biosystems). In words: BLI (Fortebio), ratio of KD against m1. As for the experimental part: as §1

T5 sequence (P08637 17-208 F176V limits assumed): as the sequence (P08637 17-208 limits assumed) above, with F160V counted along it

B1: Fc variant m1 (other)
chain: DKTHTCPPCPAPELLGGPSVFLFPPKPKDTLYITREPEVTCVVVDVSHEDPEVKFNWYVDGVEVHNAKTKPREEQYNSTYRVVSVLTVLHQDWLNGKEYKCKVSNKALPAPIEKTISKAKGQPREPQVYTLPPSRDELTKNQVSLTCLVKGFYPSDIAVEWESNGQPENNYKTTPPVLDSDGSFFLYSKLTVDKSRWQQGNVFSCSVMHEALKFHYTQKSLSLSP
modifications: N-glycan with 2,6-sialic acid (variant co-expressed with human GT and ST in ExpiCHO-S cells)
notes: also called control m1
For B1, the dissociation constant (Kd) in test [1] stood at 2050 nM; in [2], 7210 nM; in [3] it was 10700 nM; in test [4] it was 2560 nM; in test [5], 1710 nM; with FcγRI (Acro Biosystems) [6], 316 nM. In the test with FcRn (Acro Biosystems), this molecule displayed a kon of 214000 M⁻¹ s⁻¹.

B2: Fc variant m3 (other)
chain: B1 chain with F21A
modifications: N-glycan with 2,6-sialic acid (variant co-expressed with human GT and ST in ExpiCHO-S cells)
notes: Fc fragment variant of IgG1
For B2, in the test with FcRn (Acro Biosystems), the kon turned out to be 272000 M⁻¹ s⁻¹.

B3: Fc variant m8 (other)
chain: B1 chain with Y76A
notes: Fc fragment variant of IgG1, co-expressed with human GT and ST
B3: in the test with FcRn (Acro Biosystems), the association rate constant (kon) is 115000 M⁻¹ s⁻¹.

B4: Fc variant m10 (other)
chain: B1 chain with S78N, T79A, Y80S
notes: as for B3
In turn, B4 registered an on-rate constant (kon) in the test with FcRn (Acro Biosystems) of 221000 M⁻¹ s⁻¹.

B5: Fc variant m9 (other)
chain: B1 chain with Y76N, N77A
notes: as for B3
In the test with FcRn (Acro Biosystems), B5 yielded a kon of 208000 M⁻¹ s⁻¹.

B6: Fc variant m7 (other)
chain: B1 chain with V44E
modifications: N-glycan with 2,6-sialic acid (variant co-expressed with human GT and ST in ExpiCHO-S cells)
notes: Fc fragment variant of IgG1
For the molecule B6, the “Fold change of m7 relative to m1” value with FcγRI (Acro Biosystems) [7] stood at 4.95 fold. In the test with FcγRI (Acro Biosystems) [6], this molecule yielded a Kd of 63.8 nM. Moreover, the kon in the test with FcRn (Acro Biosystems) was 221000 M⁻¹ s⁻¹.

B7: Fc variant m6 (other)
chain: B1 chain with V44A
modifications: N-glycan with 2,6-sialic acid (variant co-expressed with human GT and ST in ExpiCHO-S cells)
notes: Fc fragment variant of IgG1
Turning to B7, the “Fold change of m6 relative to m1” value in [8] came to 1.46 fold; in test [9] it was 0.75 fold; in test [10] it was 1.57 fold; in test [11] it was 1 fold; in test [12], 0.97 fold; in the test with FcγRI (Acro Biosystems) [7], 0.99 fold. Moreover, the dissociation constant (Kd) was determined as 1400 nM in test [1]; 9670 nM in test [2]; 6820 nM in test [3]; 2560 nM in test [4]; 1760 nM in [5]; 319 nM with FcγRI (Acro Biosystems) [6]. Further, in the test with FcRn (Acro Biosystems), the kon amounted to 212000 M⁻¹ s⁻¹.

B8: Fc variant m11 (other)
chain: B1 chain with Y80A
modifications: N-glycan with 2,6-sialic acid (variant co-expressed with human GT and ST in ExpiCHO-S cells)
notes: Fc fragment variant of IgG1
Consider B8, for which, in the test with FcRn (Acro Biosystems), the kon was 38300 M⁻¹ s⁻¹.

B9: Fc variant m4 (other)
chain: B1 chain with F23A
modifications: N-glycan with 2,6-sialic acid (variant co-expressed with human GT and ST in ExpiCHO-S cells)
notes: Fc fragment variant of IgG1
B9: the association rate constant (kon) with FcRn (Acro Biosystems) amounted to 298000 M⁻¹ s⁻¹.

B10: Fc variant m5 (other)
chain: DKTHTCPPCPAPELLGGPSVFLFPPKPKDTLYITREPEVTCVVVDVSHEDPEVKFNWYVDGVEVHNAKTKPREQYNSTYRVVSVLTVLHQDWLNGKEYKCKVSNKALPAPIEKTISKAKGQPREPQVYTLPPSRDELTKNQVSLTCLVKGFYPSDIAVEWESNGQPENNYKTTPPVLDSDGSFFLYSKLTVDKSRWQQGNVFSCSVMHEALKFHYTQKSLSLSP
modifications: N-glycan with 2,6-sialic acid (variant co-expressed with human GT and ST in ExpiCHO-S cells)
notes: Fc fragment variant of IgG1
In the test with FcRn (Acro Biosystems), B10 yielded a kon of 347000 M⁻¹ s⁻¹.
